Legend:
zn446_human ZNF446 = zn446_human ZNF446 (UniProt Q9NWS9)
nasp_human NASP = nasp_human NASP (UniProt P49321)
lhx8_human LHX8 = lhx8_human LHX8 (UniProt Q68G74)
fhl3_human FHL3 = fhl3_human FHL3 (UniProt Q13643)
traf2_human TRAF2 = traf2_human TRAF2 (UniProt Q12933)
mtus2_human MTUS2 = mtus2_human MTUS2 (UniProt Q5JR59)
trim1_human MID2 = trim1_human MID2 (UniProt Q9UJV3)
fund1_human FUNDC1 = fund1_human FUNDC1 (UniProt Q8IVP5)
fxl18_human FBXL18 = fxl18_human FBXL18 (UniProt Q96ME1)
hnrl1_human HNRNPUL1 = hnrl1_human HNRNPUL1 (UniProt Q9BUJ2)
pdli7_human PDLIM7 = pdli7_human PDLIM7 (UniProt Q9NR12)
erep1_human ENTREP1 = erep1_human ENTREP1 (UniProt Q15884)
kcc2d_human CAMK2D = kcc2d_human CAMK2D (UniProt Q13557)
thap1_human THAP1 = thap1_human THAP1 (UniProt Q9NVV9)
rtraf_human RTRAF = rtraf_human RTRAF (UniProt Q9Y224)
cof2_human CFL2 = cof2_human CFL2 (UniProt Q9Y281)
ntaq1_human NTAQ1 = ntaq1_human NTAQ1 (UniProt Q96HA8)
dest_human DSTN = biological target: T1, dest_human DSTN (UniProt P60981)
T1 sequence: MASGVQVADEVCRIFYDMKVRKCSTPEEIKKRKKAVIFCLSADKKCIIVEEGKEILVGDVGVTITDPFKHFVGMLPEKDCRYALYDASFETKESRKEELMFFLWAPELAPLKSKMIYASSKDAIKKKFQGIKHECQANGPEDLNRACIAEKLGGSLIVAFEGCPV

efs_human EFS = efs_human EFS (UniProt O43281)
kr101_human KRTAP10-1 = kr101_human KRTAP10-1 (UniProt P60331)

Substance: Zinc finger and SCAN domain-containing protein 16 (Homo sapiens), Q9H4T2 R137Q
- effect of a mutation on the interaction (zn446_human ZNF446): with no effect

Substance: Histone H3.1 (Homo sapiens) (from UniProt P68431) A128G
- effect of a mutation on the interaction (nasp_human NASP): with no effect

Substance: Isoform 1 of Krueppel-like factor 3 (Homo sapiens), P57682-1 C322F
- effect of a mutation on the interaction (lhx8_human LHX8): disrupting interaction strength
- effect of a mutation on the interaction (fhl3_human FHL3): disrupting interaction strength
- effect of a mutation on the interaction (traf2_human TRAF2): disrupting interaction strength

Substance: Zinc finger protein 785 (Homo sapiens), A8K8V0 R212C
- effect of a mutation on the interaction (mtus2_human MTUS2): with no effect
- effect of a mutation on the interaction (trim1_human MID2): with no effect

Substance: Tyrosine-protein kinase Yes (Homo sapiens), P07947 V52L
- effect of a mutation on the interaction (fund1_human FUNDC1): with no effect

Substance: Isoform 1 of NEDD4-like E3 ubiquitin-protein ligase WWP2 (Homo sapiens), O00308-1 V717M
- effect of a mutation on the interaction (fxl18_human FBXL18): with no effect
- effect of a mutation on the interaction (hnrl1_human HNRNPUL1): with no effect
- effect of a mutation on the interaction (pdli7_human PDLIM7): with no effect
- effect of a mutation on the interaction (erep1_human ENTREP1): with no effect

Substance: Large ribosomal subunit protein uL11m (Homo sapiens) (from UniProt Q9Y3B7) R142C
- effect of a mutation on the interaction (kcc2d_human CAMK2D): with no effect
- effect of a mutation on the interaction (thap1_human THAP1): with no effect

Substance: Protein FAM98A (Homo sapiens), Q8NCA5 S283G
- effect of a mutation on the interaction (rtraf_human RTRAF): with no effect

Substance: Actin, cytoplasmic 1 (Homo sapiens) (from UniProt P60709) E364K
- effect of a mutation on the interaction (cof2_human CFL2): with no effect
- effect of a mutation on the interaction (ntaq1_human NTAQ1): disrupting interaction strength
- effect of a mutation on the interaction (dest_human DSTN): disrupting interaction strength

Substance: Tyrosine-protein kinase Fyn (Homo sapiens), P06241-3 V410M
- effect of a mutation on the interaction (efs_human EFS): with no effect

Substance: Zinc finger protein 559 (Homo sapiens), Q9BR84 L6W
- effect of a mutation on the interaction (kr101_human KRTAP10-1): with no effect
